In the supplement of paper PMC10567573:

B1: IQUB (parent)
chain: EADYEDDSKIAFLMQLQDIQYLTE

Variants of: B1
Test: protein stability index of a GFP-peptide fusion (GPS, HEK-293T) (PSI 1-6); higher = more stable
Conditions: c terminus: a fixed tail appended
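Also: lentivirally expressed fusions sorted by FACS into six bins by GFP to DsRed ratio, PSI derived from sequencing read proportions per bin multiplied by bin number.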

Protein stability index, by site and new letter:
L22: E 4.7 | C 3.67 | G 4.5 | P 4.51 | N 4.65 | I 3.62 | K 3.79 | A 4.16 | S 3.99
Y4: H 3.35 | N 4.01 | K 3.96 | W 3.42 | T 3.66 | A 3.76
E5: R 2.63 | W 2.29 | F 2.38 | P 2.79 | K 2.6 | T 3.5 | N 3.12 | G 2.49
D7: F 1.17 | Y 2.18 | A 2.48 | E 3.14 | W 2.33 | C 1.88 | K 2.38
L13: A 4.02 | Q 4.34 | N 4.55 | T 4.3 | C 3.5 | K 4.11 | I 2.77
I10: E 4.43 | D 4.35 | T 3.5 | P 4.53 | Q 4.12 | C 3.34
D6: R 2.09 | S 2.7 | P 2.34 | Q 2.57 | M 1.75 | E 2.88 | N 2.9 | T 2.25
Q17: T 2.96 | W 2.02 | G 3.46 | F 2.68 | S 2.69 | V 2.67 | E 3.43 | R 2.57
I19: F 3.44 | T 4.15 | R 3.78 | Y 3.54 | W 2.64 | N 3.98 | K 4.86
D3: G 2.77 | H 2.17 | L 2.02 | K 2.58
A11: L 2.12 | Y 2.02 | F 2.38 | G 3.41 | H 2.97 | P 3.82
D18: F 2.33 | M 1.83 | H 2.58
E1: T 2.47 | A 2.95 | S 2.65 | I 2.09 | P 2.6 | Q 2.76 | M 2.38
Y21: E 4.21 | P 3.77 | F 2.78 | W 2.95 | K 3.51 | I 3.19 | V 3.51
L16: D 4.58 | H 4.43 | Y 3.64 | N 4.33 | I 2.95
S8: G 3.46 | T 3.07 | D 3.62 | C 2.29 | P 2.6 | R 2.88 | E 3.21 | V 2.6
Q15: C 2.09 | Y 2.09 | H 2.44 | N 2.84 | I 1.98 | M 2.36 | R 2.89
A2: M 2.44 | F 2.58 | K 2.89 | S 2.89 | R 2.44 | I 2.99 | Q 2.36 | V 2.99
Q20: V 2.19 | R 3.67 | Y 1.62 | I 2.64 | D 3.86 | S 3.61 | F 1.54
F12: S 4.61 | Q 4.78 | T 4.94 | W 3.18 | E 5.06 | A 3.89
E24: M 1.86 | K 2.73 | L 1.56 | I 1.67 | Q 2.72 | R 2.07 | V 1.81 | N 2.61 | A 2.91 | Y 2.36 | S 2.71
T23: Y 2.21 | Q 3.89 | E 4.16 | R 3.29 | I 1.54 | M 1.92 | H 3.29 | A 2.26 | N 3.89
M14: A 3.4 | R 3.75 | Y 2.92 | H 3.96 | T 4.04
K9: F 2.32 | W 2.61 | E 3.39 | H 3.36 | M 2.47 | C 1.86 | N 3.08 | Q 3.21
